Results on two substances are retold here after US20220175647A1, “COSMETIC PREPARATION CONTAINING ULTRAVIOLET WAVELENGTH CONVERSION MATERIAL AND WATER-SOLUBLE THICKENING AGENT” (Shiseido Company, Ltd., priority 2019, published 2022).

The nature of data set [1]: Absorption and emission spectrum peak wavelengths of UV wavelength conversion substances. The data set is classed as physicochemical.
The test system of data set [2] is Human dermal fibroblasts. The experiment in a line: Cell activity (AlamarBlue) of cells UV-irradiated through a solution of UV wavelength conversion substance. The following applies: UV 0 to 100 mJ/cm^2, FIG. 3. The data set is classed as cell-based. Here is the method: The UV wavelength conversion substances (3) and (4) were dispersed in alcohol to prepare 5% and 10% dispersions.
(§1) 1. Human dermal fibroblasts and human skin keratinocytes purchased from Kurabo Industries Ltd. were used. A cell suspension (1 mL) stored in liquid nitrogen was thawed in a water bath (37° C.) to an extent that small ice pellets remained, and then diluted with 9 mL of warm medium. 2. The diluted suspension was mixed gently and then transferred to a T75 flask and incubated overnight at 37° C. 3. The next day, the medium was replaced with 10 mL of fresh medium. 4. The medium was replaced periodically (once every 2 days for fibroblasts and once every 2 to 3 days for keratinocytes) and cell proliferation was continued. Meanwhile, the cells were observed using a microscope, and it was confirmed that the cells grew in the correct form. 5. After the cells reached about 80% confluence, the cells were passaged. The cells were passaged by washing the cells once with 10 mL of warm PBS, adding 5 mL of warm trypsin to a T75 flask, covering the bottom of the flask with a trypsin solution, followed by aspirating at room temperature for 1 minute. 6. The flask was allowed to stand in an oven at 37° C. for (maximum) 2 minutes for fibroblasts and (maximum) 7 minutes for keratinocytes. The cells were observed using a microscope and confirmed to be small and oval. 7. […]
(The colour change of resazurin is a common sign of viable cells or microbes.)

Data set [3] concerns Human dermal fibroblasts. Put plainly: Restoration of cell activity decreased by prior UV irradiation (AlamarBlue). The data set is classed as cell-based. The conditions noted are these: pre-irradiation 400 mJ/cm^2 without substance, then UV 0 to 200 mJ/cm^2 through 0.4% or 2% C-phycocyanin; effect equivalent at both concentrations; FIG. 5. How it is done:
as §1, with “7. Thereafter, the side of the T75 flask was lightly tapped to release the cells.” for “7.”

Where “and” joins values, the source holds several entries; their conditions need not be identical. Equal entries are not always repeated.

B-phycoerythrin: in data set [1], the “absorption spectrum peak wavelength” value is given as 305 nm; the “emission spectrum peak wavelength” value was 570 nm and 610 nm.
In the case of C-phycocyanin, the “cell activity (relative fluorescence intensity, AlamarBlue)” value with Human dermal fibroblasts [2] (0.4% C-phycocyanin solution) is listed as “the decrease in cell activity was suppressed”. Besides, the “cell activity (relative fluorescence intensity, AlamarBlue)” value in the data set on Human dermal fibroblasts [2] (2% C-phycocyanin solution, compared to no UV irradiation) was “the cell activity was even increased”. Further, the “cell activity after activity was once decreased by UV” value in the data set with Human dermal fibroblasts [3] is “cell activity was recovered”. Besides, in data set [1], the “absorption spectrum peak wavelength” value amounted to 350 nm; the “emission spectrum peak wavelength” value was 640 nm and 700 nm.
